The test system of data set [1] is Akt. Description: MS quantification of Akt activity in B lymphoma cell lysates treated with PI3K inhibitors. As to conditions: B lymphoma cell line WEHI-231; varying concentrations of inhibitor; FIG. 3A. The format is cell-based, mouse. The protocol: (§1) The activity of recombinant Akt/PKB was measured using the methods of the invention. Recombinant Akt/PKB was purchased from Upstate (Hampshire, UK). A 5.0 μL aliquot of […] (SEQ ID. NO: 7), 7.5 mM magnesium chloride, 0.15 mM EDTA, 7.5 mM β-glycerol phosphate, 0.1 mM sodium orthovanadate, and 0.1 mM DTT was mixed with 2.5 μL solution of Akt/PKB of various amounts: 0.004, 0.04, 0.2, 0.8, 4, 20, and 80 ng. The incubation time of each reaction was from between 2 minutes to 18 hours. Reactions were stopped with the addition of 7.5 μL of a 1% trifluoroacetic acid solution containing 1 pmol/μL internal standard (mass labeled SEQ ID NO: 39). Aliquots (0.5 μL out of a total of […]) from each reaction were analyzed by either MALDI-TOF MS (Ultraflex, Bruker) or LC-MS/MS (Ultimate HPLC, Dionex, connected to a Micromass/Waters Q-TOF instrument) using a nanoESI interface. Reaction products were analyzed by LC-MS/MS without further treatment. […]
(§2) Mouse WEHI-231 B lymphoma cell line was cultured as described in Cutillas et al., Mol Cell Proteomics 4:1038-51 (2005), incorporated herein in its entirety by reference. […] After centrifugation at 20,000×g, cell lysates were ready to use as enzyme sources. The enzyme activity of Akt in varying amounts of cell lysate (0.033, 0.067, 0.33, and 0.67 μg) was measured in the protocol outlined in example 2. […]

For data set [2], the system named is Akt. Description: MS quantification of activity of Akt immunoprecipitates from B lymphoma cells. The format is cell-based, mouse. The conditions noted are these: addition of PI3K inhibitor, FIG. 3B. How it is done:
as §1, §2

The subject of data set [3] is Akt. Description: Akt activity in B cell lysates in the presence of PI3K activators with or without inhibitor. The conditions noted are these: PI3K activators (sodium pervanadate and anti-IgM) present; with vs without inhibitor; FIG. 3C. The format is cell-based, mouse. How it is done:
as §1, §2

Data set [4] relates to T1, S6 Kinase/Rsk peptide substrate (SEQ ID NO: 5).
T1 sequence: RRRLSSLRA

The test system of data set [5] is T2, PKC peptide substrate (SEQ ID NO: 12).
T2 sequence: QKRPSQRSKYL

The subject of data set [6] is Protein Kinase C peptide substrate (SEQ ID NO: 23).
For data set [7], the system named is T3, Akt peptide substrate (SEQ ID NO: 7).
T3 sequence: RPRAATF

In data set [8] the test system is T4, MAP Kinase peptide substrate (SEQ ID NO: 10).
T4 sequence: APRTPGGRR

For the molecule `COC[C@H]1OC(=O)c2coc3c2[C@@]1(C)C1=C(C3=O)[C@@H]2CCC(=O)[C@@]2(C)C[C@H]1OC(C)=O` [WM], the “Activity of the Akt enzyme in cell lysates” value in data set [1] was “decreased enzyme activity”. Besides, the “Activity of Akt immunoprecipitates” value in data set [2] is given as “similarly affected”. For the same molecule, the “Activity of Akt in B cell lysates” value in data set [3] is “sensitive to the presence or absence of the inhibitor”.

With recombinant S6 p70 kinase, in data set [4], the “extracted mass chromatogram of enzymatic product (LC-MS), time points 0, 10, 30, 60 min” value (from here on “extracted mass chromatogram”) is given as “b) corresponds to phosphylation of SEQ ID NO: 5 by S6 p70 kinase”.

As for recombinant PKC, the figures for the “extracted mass chromatogram” value in data set [5] and in data set [6] were “a) corresponds to phosphorylation of SEQ ID NO: 12 by PKC” and “d) corresponds to phosphorylation of SEQ ID NO: 23 by PKC”, respectively.

With recombinant Akt/PKB, the “enzymatic activity (phosphorylated peptide product quantified by MALDI-TOF MS or LC-MS/MS)” value in data set [7] was “capable of detecting enzymatic activity down to the zeptommole range”.

On to `Cc1ccccc1-n1c(Cn2cnc3c(N)ncnc32)nc2cccc(C)c2c1=O` [IC87114], for which the “Activity of the Akt enzyme in cell lysates” value in data set [1] is given as “decreased enzyme activity”.

As to recombinant Erk, the “extracted mass chromatogram” value in data set [8] is “c) corresponds to phosphorylation of SEQ ID NO: 10 by Erk”.

The values are drawn from patent US20090215098A1, “QUANTIFICATION OF ENZYME ACTIVITY BY MASS SPECTROMETRY” (UCL BUSINESS PLC., priority 2006, published 2009).
